Laboratory results: the supplement of paper PMC9170038

Tested on: MS2 coat protein
Assay: apparent KD of MS2 coat protein; designed switch direction (-1 OFF switch, 1 ON switch): -1; higher = weaker reporter binding
Method in brief: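 Each step of the titration lasted 0.8–1.5 h at the lowest concentration and 10–20 min at the highest. The protein, SNAP-549-labelled MS2 coat protein, went from 0.7 or 1.5 nM doubling to 3 µM over RNA switches transcribed on Illumina chips by stalled E. coli RNA polymerase. Normalised cluster fluorescence was curve-fitted, and the per-design median over clusters is given as apparent KD.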

[1] = Eterna round: R95, input ligand: FMN 200 uM
[2] = Eterna round: R95, input ligand: microRNA oligo, concentration not stated
[3] = Eterna round: R95, input ligand: none

Sequence: GAGUACUGAGGAUAUACAUGAGGAUCACCCAUGUGUUCCAACUAGGAAUCUAGAGUAUGUAGAAGGCAGUGCUG [salish99_ex3_r4_704] (Eterna round: R97, puzzle: Exclusion 3)
- apparent KD of MS2 coat protein (input ligand: FMN 200 uM): 0.145 µM
- apparent KD of MS2 coat protein (input ligand: none): 0.13 µM

Sequence: GAGUGACAUGAGGAUCACCCAUGUAAGGAUAUACGGUUGGUAGAGAGAGGGCGAAAGGGUAGAAGGUACGAAGG [JR_Exclu1_Sub054] (puzzle: Exclusion 1)
- apparent KD of MS2 coat protein [1]: 0.0646 µM
- apparent KD of MS2 coat protein [2]: 0.076 µM
- apparent KD of MS2 coat protein [3]: 0.0952 µM

Sequence: GAUAAGGGAGGAUAUACGGAACGGUUUAUGCUCAGUGAGGCACAUGAGGAUCACCCAUGUAGAAGGCCCGACAG [Gezaerti] (puzzle: Exclusion 2)
- apparent KD of MS2 coat protein [2]: 0.0256 µM

Sequence: GAUAAGGUAGGAUAUACGAAUAAAGAGGGUAGUAAUAAUACACAUGAGGAUCACCCAUGUAGAAGGACCAAUAG [Mat - Exclusion 2 - Mod of my Tesla design - D42] (puzzle: Exclusion 2)
- apparent KD of MS2 coat protein [1]: 0.0412 µM
- apparent KD of MS2 coat protein [2]: 0.0193 µM
- apparent KD of MS2 coat protein [3]: 0.0179 µM

Sequence: GAUCAACAUGAGGAUCACCCAUGUGAGGAUAUGAUACUAUGUACUUCGGUACAUAGUAUCAGAAGGCAUUAGGA [Ex1-3: 39] (puzzle: Exclusion 1)
- apparent KD of MS2 coat protein [2]: 0.0523 µM

Sequence: GAUCACUGAGGAUAUACACAGAUACAAAGUAUCUGAUGGUGACAUGAGGAUCACCCAUGUAGAAGGCAGAGGUC [Omei Ex2 B7] (Eterna round: R97, puzzle: Exclusion 2)
- apparent KD of MS2 coat protein (input ligand: FMN 200 uM): 0.29 µM
- apparent KD of MS2 coat protein (input ligand: none): 0.495 µM

Sequence: GAUCAUGCAGGAUAUACAGUAACCAUGAAAACAUGGAUCAAACAUGAGGAUCACCCAUGUAGAAGGGCAUGAUC [Omei Ex2 A22] (Eterna round: R97, puzzle: Exclusion 2)
- apparent KD of MS2 coat protein (input ligand: FMN 200 uM): 0.0388 µM
- apparent KD of MS2 coat protein (input ligand: none): 0.0182 µM

Sequence: GAUCGACAUGAGGAUCACCCAUGUCAGGAUAUCGUCACUGGAGCCUCGGCUCCAGUGACGAGAAGGGAUAUAAU [E1/16-A2] (Eterna round: R97, puzzle: Exclusion 1)
- apparent KD of MS2 coat protein (input ligand: FMN 200 uM): 0.0316 µM
- apparent KD of MS2 coat protein (input ligand: none): 0.032 µM

Sequence: GAUGAGGUAGGAUAUACGAGAAGAUAGGGUAGAUAGAUAACACAUGAGGAUCACCCAUGUAGAAGGACCAGUAG [Mat - Exclusion 2 - Mod of my Tesla design - D72] (puzzle: Exclusion 2)
- apparent KD of MS2 coat protein [2]: 0.0325 µM

Sequence: GAUGCUUCGGCAUCUACAAGCUUUUUGCUCGUCUUAUUAACAUGAGGAUCACCCAUGUCAAAGAGACCUCAUGUAUU [Sensor v3 - turn-off variant 2 - 4] (puzzle: Sensor v3, turn-off variant 2)
- apparent KD of MS2 coat protein [1]: 0.314 µM
- apparent KD of MS2 coat protein [2]: 0.0189 µM
- apparent KD of MS2 coat protein [3]: 0.381 µM

Sequence: GAUGGCUAAGGAUAUACAUAGAAGAAUUGAACUUGGAUUAUACAUGAGGAUCACCCAUGUAGAAGGUAGUCAUC [ExGluten 3 - Jieux - Exclusion 2] (Eterna round: R97, puzzle: Exclusion 2)
- apparent KD of MS2 coat protein (input ligand: FMN 200 uM): 0.0829 µM
- apparent KD of MS2 coat protein (input ligand: none): 0.0246 µM

Sequence: GAUGUGGGUUUCCGGAGUAACAUGAGGAUCACCCAUGUAGAAGUUGGAGGGAUCAAGCUUUUUGGUCGUCACACGUG [JR_SV3TOV1_Sub053] (puzzle: Sensor v3, turn-off variant 1)
- apparent KD of MS2 coat protein [1]: 0.213 µM
- apparent KD of MS2 coat protein [2]: 0.227 µM
- apparent KD of MS2 coat protein [3]: 0.306 µM

Sequence: GAUUAACAUGAGGAUCACCCAUGUGAGGAUAUGGACUUGCCCACUUACCCUUUAGAGUCUAGAAGGCGCAUCUC [1986#30] (Eterna round: R97, puzzle: Exclusion 1)
- apparent KD of MS2 coat protein (input ligand: FMN 200 uM): 0.0287 µM
- apparent KD of MS2 coat protein (input ligand: none): 0.0208 µM

Sequence: GAUUAACAUGAGGAUCACCCAUGUGAGGAUAUUGACUUGCUCACUUUCCCAUUAGAGUCGAGAAGGCGCAUCUG [1986#19] (Eterna round: R97, puzzle: Exclusion 1)
- apparent KD of MS2 coat protein (input ligand: FMN 200 uM): 0.0349 µM
- apparent KD of MS2 coat protein (input ligand: none): 0.0605 µM

Sequence: GAUUACUGCAAGCUUAGGGACAUGAGGAUCACCCAUGUUCGUCUUAUUGAUCUAGGUACGCUGACGUACCUAGAUCU [JL-sv1-2.29 Brourd mod] (puzzle: Sensor v3, turn-off variant 1)
- apparent KD of MS2 coat protein [1]: 0.0147 µM
- apparent KD of MS2 coat protein [2]: 0.0194 µM
- apparent KD of MS2 coat protein [3]: 0.0138 µM

Sequence: GAUUAGCAAGUGAGAUCCCACAUGAGGAUCACCCAUGUGCUCGUCUUAUAAGGUACUGUGACGAAAGUCACGGUACC [Mat - Sensor, turn-off var - Eli Mod - D6] (Eterna round: R97, puzzle: Sensor, turn-off variant 1)
- apparent KD of MS2 coat protein (input ligand: FMN 200 uM): 0.424 µM
- apparent KD of MS2 coat protein (input ligand: none): 0.226 µM

Sequence: GAUUAUGCGAGCUUUAGGGACAUGAGGAUCACCCAUGUUCGUCUUAUUAAUCUAGGUACACUGACAUACCUAAAUCU [JMF 64] (puzzle: Sensor v3, turn-off variant 1)
- apparent KD of MS2 coat protein [1]: 0.0213 µM
- apparent KD of MS2 coat protein [2]: 0.0305 µM
- apparent KD of MS2 coat protein [3]: 0.021 µM

Sequence: GAUUAUGCGAGCUUUAGGGACAUGAGGAUCACCCAUGUUCGUCUUAUUAGUCUAAAUGCACUGACAUACCUAAAUCU [JMF 73] (puzzle: Sensor v3, turn-off variant 1)
- apparent KD of MS2 coat protein [1]: 0.0129 µM
- apparent KD of MS2 coat protein [2]: 0.0153 µM
- apparent KD of MS2 coat protein [3]: 0.0139 µM

Sequence: GAUUAUGCGAGCUUUAGGGACAUGAGGAUCACCCAUGUUCGUCUUAUUAGUCUAGGUGCACUAACAUACCUAAAUCU [JMF 35] (puzzle: Sensor v3, turn-off variant 1)
- apparent KD of MS2 coat protein [1]: 0.0207 µM
- apparent KD of MS2 coat protein [2]: 0.036 µM
- apparent KD of MS2 coat protein [3]: 0.0213 µM

Sequence: GAUUAUGCGAGCUUUAGGGACAUGAGGAUCACCCAUGUUCGUCUUAUUAGUCUGAGUGCACUGACAUACCUAAAUCU [JMF 85] (puzzle: Sensor v3, turn-off variant 1)
- apparent KD of MS2 coat protein [1]: 0.0154 µM
- apparent KD of MS2 coat protein [2]: 0.022 µM
- apparent KD of MS2 coat protein [3]: 0.0167 µM

Sequence: GAUUAUGCGAGCUUUAGGGACAUGAGGAUCACCCAUGUUCGUCUUAUUGAUCUGGAUGCACUAACAUACCUAAAUCU [JMF 27] (puzzle: Sensor v3, turn-off variant 1)
- apparent KD of MS2 coat protein [1]: 0.0511 µM
- apparent KD of MS2 coat protein [2]: 0.0646 µM
- apparent KD of MS2 coat protein [3]: 0.0493 µM

Sequence: GAUUAUGCGAGCUUUAGGGACAUGAGGAUCACCCAUGUUCGUCUUAUUGGUCUAGAUACACUGACAUACCUAAAUCU [JMF 58] (puzzle: Sensor v3, turn-off variant 1)
- apparent KD of MS2 coat protein [1]: 0.0148 µM
- apparent KD of MS2 coat protein [2]: 0.0191 µM
- apparent KD of MS2 coat protein [3]: 0.014 µM

Sequence: GAUUAUGCGAGCUUUAGGGACAUGAGGAUCACCCAUGUUCGUCUUAUUGGUCUGGAUACGCUGACAUACCUAAAUCU [JMF 97] (puzzle: Sensor v3, turn-off variant 1)
- apparent KD of MS2 coat protein [1]: 0.0186 µM
- apparent KD of MS2 coat protein [2]: 0.0284 µM
- apparent KD of MS2 coat protein [3]: 0.0209 µM

Sequence: GAUUAUGCGAGCUUUAGGGACAUGAGGAUCACCCAUGUUCGUCUUGUUGAUCUAGGUGCACUGACAUACCUAAAUCU [JMF 88] (puzzle: Sensor v3, turn-off variant 1)
- apparent KD of MS2 coat protein [1]: 0.0209 µM
- apparent KD of MS2 coat protein [2]: 0.0277 µM
- apparent KD of MS2 coat protein [3]: 0.0224 µM

Sequence: GAUUGACAUGAGGAUCACCCAUGUGAGGAUAUCGGCCGGACCGUGCUGGCUUCCGUCGCGAGAAGGCGCAUAGG [Exclusion 1 V41] (puzzle: Exclusion 1)
- apparent KD of MS2 coat protein [1]: 0.0782 µM
- apparent KD of MS2 coat protein [2]: 0.0355 µM
- apparent KD of MS2 coat protein [3]: 0.0389 µM

Sequence: GAUUGACAUGAGGAUCACCCAUGUGAGGAUAUCGGCUGGUACGUGUUGGCUUGCCUCUCGAGAAGGCGCAUAGG [Exclusion 1 V55] (puzzle: Exclusion 1)
- apparent KD of MS2 coat protein [1]: 0.14 µM
- apparent KD of MS2 coat protein [2]: 0.0385 µM
- apparent KD of MS2 coat protein [3]: 0.0631 µM
